B1: wild type human KMO (Hs-KMO), NanoBRET constructs [human] / itself (parent complex)
chain: MDSSVIQRKKVAVIGGGLVGSLQACFLAKRNFQIDVYEAREDTRVATFTRGRSINLALSHRGRQALKAVGLEDQIVSQGIPMRARMIHSLSGKKSAIPYGTKSQYILSVSRENLNKDLLTAAEKYPNVKMHFNHRLLKCNPEEGMITVLGSDKVPKDVTCDLIVGCDGAYSTVRSHLMKKPRFDYSQQYIPHGYMELTIPPKNGDYAMEPNYLHIWPRNTFMMIALPNMNKSFTCTLFMPFEEFEKLLTSNDVVDFFQKYFPDAIPLIGEKLLVQDFFLLPAQPMISVKCSSFHFKSHCVLLGDAAHAIVPFFGQGMNAGFEDCLVFDELMDKFSNDLSLCLPVFSRLRIPDDHAISDLSMYNYIEMRAHVNSSWFIFQKNMERFLHAIMPSTFIPLYTMVTFSRIRYHEAVQRWHWQKKVINKGLFFLGSLIAISSTYLLIHYMSPRSFLRLRRPWNWIAHFRNTTCFPAKAVDSLEQISNLISR

Drawing on paper PMC7862291 (2021), this text covers response for 1 variant.

The variants in this experiment derive from B1. Description: NanoBRET; HEK293T cells; + ligand (TMR ligand); n = 6; read off a plot. (Bioluminescence resonance energy transfer reports proximity on the nanometre scale.)
chain 1 D184A, chain 1 Y185P, chain 1 Q187A: the response was about 78 mBU.
